Test results as given in patent US20230408521A1.

What was measured:
[1] = molecular target: recombinant mature human GDF-15 protein (as expressed in Baculovirus-transfected HighFive insect cells) (human) (UniProt Q99988); assay: SPR (Biorad ProteOn XPR36), KD=koff/kon
[2] = molecular target: recombinant mature human GDF-15 protein (as expressed in Baculovirus-transfected HighFive insect cells) (human) (UniProt Q99988); assay: SPR (Biorad ProteOn XPR36, GLC chip), GDF-15 immobilised, antibody as analyte, 1:1 Langmuir fit, 25 C
[3] = molecular target: recombinant mature human GDF-15 protein derived from expression in E. coli (human) (UniProt Q99988); assay: SPR (Biorad ProteOn XPR36), E. coli GDF-15 immobilised, antibody as analyte

monoclonal anti-human GDF-15 mAb-B1-23 (antibody)
Kd [1]: 0.79 nM | koff [2]: 0.00043 s⁻¹ | kon [2]: 540000 M⁻¹ s⁻¹ | deviation of rate constants against GDF-15 derived from insect cells [3]: 45% | fold difference of affinity values against GDF-15 derived from insect cells [3]: < 2 fold
